Molecular target: cynomolgus PD-1 (cynomolgus)
Test: kinetic analysis (bio-light interferometry)

- Kd: 118 pM
B1: Pembrolizumab (antibody, V domains shown)
VH: QVQLVQSGVEVKKPGASVKVSCKASGYTFTNYYMYWVRQAPGQGLEWMGGINPSNGGTNFNEKFKNRVTLTTDSSTTTAYMELKSLQFDDTAVYYCARRDYRFDMGFDYWGQGTTVTVSS
VL: EIVLTQSPATLSLSPGERATLSCRASKGVSTSGYSYLHWYQQKPGQAPRLLIYLASYLESGVPARFSGSGSGTDFTLTISSLEPEDFAVYYCQHSRDLPLTFGGGTKVEIKR
notes: also called MK3475

From patent US20220098303A1 (GlaxoSmithKline, published 2022)
